Test [1] deals with MBP-Kif2b-CT. In words: GST pull-down, anti-MBP blot quantified. Particulars: purified MBP-Kif2b deletions; n = 3; parent: 1.0; read off a plot.
Test [2] concerns the target MBP-Kif2b-NT. Nature of the test: GST pull-down, anti-MBP blot quantified. The settings on record: purified MBP-Kif2b deletions; parent: 1.0; read off a plot.

For “GST-SKAP (from UniProt Q9Y448) S232A; S237A; T294A”, the ratio to parent is 0.42 in test [1] and 1.1 in test [2].
In the case of “GST-SKAP (from UniProt Q9Y448) S232E; S237E; T294E”, the results for the ratio to parent in test [1] and in test [2] were 0.87 and 15, respectively.

Source of the values: article PMC5159797.
